# Square brackets hold non-standard residues; d marks the D form. Primed or numbered codes have the meaning given here. * marks the point of attachment. Dabcyl′ = quencher group on the Lys side chain, CN(C)c1ccc(/N=N/c2ccc(C(=O)*)cc2)cc1; EDANS = O=S(=O)(O)c1cccc2c(NCCN*)cccc12; pS = N[C@@H](COP(=O)(O)O)C(=O)O
# B1: Catalytic domain of Pin1, residues 50-163 (domain or fragment, human, UniProt Q13526 50-163, looked up)
# chain: GEPARVRCSHLLVKHSQSRRPSSWRQEKITRTKEEALELINGYIQKIKSGEEDFESLASQFSDCSSAKARGDLGAFSRGQMQKPFEDASFALRTGEMSGPVFTDSGIHIILRTE
# B2: Catalytic domain of Par17, residues 60-156 (domain or fragment)
# chain: not shown
# Molecular target: T1, FRET peptide substrate Ac-EK(Dabcyl)pSPRFE(EDANS)KA-NH2 (SMILES …)
# T1 peptide: Ac-EK(Dabcyl′)[pS]PRFE(EDANS)KA-NH2
# Test: cell-based or functional assay
row,Binder,"Km, FRET-based chymotrypsin-coupled peptidyl-prolyl cis–trans isomerase assay (values at 1 h) [µM]"
1,B1,48.2
2,B2,62.5

# — PMC9935730, “Expression, Purification, Structural and Functional Characterization of Recombinant Human Parvulin 17” (Molecular Biotechnology, 2022)
